Patent publication US20140086927A1 (FUJITA HEALTH UNIVERSITY, published 2014)

How the values were obtained:
[1] = target: Fuk85HA39-319 (truncated HA on 293T cells) (Influenza A virus H3N2, …, UniProt P12589 39-319); assay: flow cytometry on 293T cells expressing truncated HA
[2] = target: Fuk85HA44-309 (truncated HA on 293T cells) (Influenza A virus H3N2, …, UniProt P12589 44-309); assay: as above

B1: F005-126 antibody (IgG) (antibody, V domains shown)
VH: QVQLVQSGAEVKKPGASVTVSCQVSGYTLTSYGLSWVRQAPGQGLEWVGWINTYDGQTKYVKKFQGRVTMTTHTGTNTAYMEMKSLRSDDTAVYYCARVEGVRGVMGFHYYPMDVWGQGTMVTVSS
VL: QSVLTQPPSVSGAPGQRVTISCTGSSSNIGAGYAVHWYQQLPGTAPKLLISGNSNRPSGVPDRFSGSKSGTSASLAITGLQAEDEADYYCQSYDSSLSGSVFGGGTKLTVLG
notes: also called F5126; F05126
binding result [1]: binds
binding result [2]: no binding
